B1: recombinant L1CAM ectodomain (L1CAM-ED) (domain or fragment, human, UniProt P32004 20-1120, looked up)
chain: IQIPEEYEGHHVMEPPVITEQSPRRLVVFPTDDISLKCEASGKPEVQFRWTRDGVHFKPKEELGVTVYQSPHSGSFTITGNNSNFAQRFQGIYRCFASNKLGTAMSHEIRLMAEGAPKWPKETVKPVEVEEGESVVLPCNPPPSAEPLRIYWMNSKILHIKQDERVTMGQNGNLYFANVLTSDNHSDYICHAHFPGTRTIIQKEPIDLRVKATNSMIDRKPRLLFPTNSSSHLVALQGQPLVLECIAEGFPTPTIKWLRPSGPMPADRVTYQNHNKTLQLLKVGEEDDGEYRCLAENSLGSARHAYYVTVEAAPYWLHKPQSHLYGPGETARLDCQVQGRPQPEVTWRINGIPVEELAKDQKYRIQRGALILSNVQPSDTMVTQCEARNRHGLLLANAYIYVVQLPAKILTADNQTYMAVQGSTAYLLCKAFGAPVPSVQWLDEDGTTVLQDERFFPYANGTLGIRDLQANDTGRYFCLAANDQNNVTIMANLKVKDATQITQGPRSTIEKKGSRVTFTCQASFDPSLQPSITWRGDGRDLQELGDSDKYFIEDGRLVIHSLDYSDQGNYSCVASTELDVVESRAQLLVVGSPGPVPRLVLSDLHLLTQSQVRVSWSPAEDHNAPIEKYDIEFEDKEMAPEKWYSLGKVPGNQTSTTLKLSPYVHYTFRVTAINKYGPGEPSPVSETVVTPEAAPEKNPVDVKGEGNETTNMVITWKPLRWMDWNAPQVQYRVQWRPQGTRGPWQEQIVSDPFLVVSNTSTFVPYEIKVQAVNSQGKGPEPQVTIGYSGEDYPQAIPELEGIEILNSSAVLVKWRPVDLAQVKGHLRGYNVTYWREGSQRKHSKRHIHKDHVVVPANTTSVILSGLRPYSSYHLEVQAFNGRGSGPASEFTFSTPEGVPGHPEALHLECQSNTSLLLRWQPPLSHNGVLTGYVLSYHPLDEGGKGQLSFNLRDPELRTHNLTDLSPHLRYRFQLQATTKEGPGEAIVREGGTMALSGISDFGNISATAGENYSVVSWVPKEGQCNFRFHILFKALGEEKGGASLSPQYVSYNQSSYTQWDLQPDTDYEIHLFKERMFRHQMAVKTNGTGRVRLPPAGFATE

Key:
[1] = target: B1; experiment: SPR
[2] = target: the molecule itself; experiment: SPR

percent reduction of the RUmax of L1CAM-ED binding to immobilised L1CAM-ED [1] [%] | Binder | Kd [2] [nM]
20 | LKEEEGRITIRGGK [ROBO3-A peptide] | 
 | B1 | 17 ± 1.3
20 | PIPGDSRVVVLPSG [DCC-A peptide] | 
20 | FIPTDGRHFVSQTTG [CNTN2-A peptide] | 
